In paper PMC4756812, “ZFP57 recognizes multiple and closely spaced sequence motif variants to maintain repressive epigenetic marks in mouse embryonic stem cells”:

Key:
[1] = molecular target: T1, MBP-ZFP57 DNA binding domain (Glu87-Ala195) (Mus musculus, UniProt Q8C6P8 87-195); assay: EMSA; EMSA: 25 pmol protein, 2.5 pmol dsDNA, 25 mM HEPES pH 7.9, 50 mM KCl, 6.25 mM MgCl2, 5% glycerol, on ice 10 min; 5% PAGE, SYBR Green stain; settings: protein: recombinant; blunt
T1 sequence: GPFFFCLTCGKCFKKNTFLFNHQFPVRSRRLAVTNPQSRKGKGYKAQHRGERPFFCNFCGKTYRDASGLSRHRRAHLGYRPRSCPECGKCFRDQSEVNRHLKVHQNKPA

[2] = molecular target: T1, MBP-ZFP57 DNA binding domain …; assay: EMSA; lower efficiency than control TGCCGC; EMSA: 25 pmol protein, 2.5 pmol dsDNA, 25 mM HEPES pH 7.9, 50 mM KCl, 6.25 mM MgCl2, 5% glycerol, on ice 10 min; 5% PAGE, SYBR Green stain; settings: protein: recombinant; blunt

B1: Methylated Control (dsDNA)
DNA 1: GTAATATTGCCGCAGTAATA
DNA 2: TATTACTGCGGCAATATTAC
modifications: 5mC at top 11 and bottom 9 (5'-based; printed Z)
[1]
  binding result: binds

B2: Methylated Commd1 (dsDNA)
DNA 1: GTAACTGCGGCCGCCCCACA
DNA 2: TGTGGGGCGGCCGCAGTTAC
modifications: 5mC at top 8, 12 and bottom 12, 8 (5'-based)
[2]
  binding result: binds

B3: Methylated Ston2 JF1 (dsDNA)
DNA 1: CTGGGGCGGCAGTTGCCGCAGATGG
DNA 2: CCATCTGCGGCAACTGCCGCCCCAG
modifications: 5mC at top 7, 17; methylated bottom strand not in material
[1]
  binding result: binds

B4: Methylated 1G (dsDNA)
DNA 1: GTAATATGGCCGCAGTAATA
DNA 2: TATTACTGCGGCCATATTAC
modifications: 5mC at top 11 and bottom 9
[1]
  binding result: binds
